Test results from patent US20250115926A1, “DEREGULATED DHS AND TYRA ENZYMES OF GRASSES ENABLE EFFICIENT PRODUCTION OF BOTH TYROSINE AND PHENYLALANINE” (priority 2023, published 2025).

Experiments:
[1] = system: O=C[C@H](O)[C@H](O)COP(=O)(O)O; experiment: purified protein, by the assay type; conditions: other: 1.5 mM PEP, 37° C., pH 7.5
Protocol: (§1) To examine their functional properties, the recombinant DHS enzymes of Brachypodium were produced and characterized in vitro.
(§2) All DHS effectors tested were included in the initial reaction mixtures at a concentration of 0.5 mM, except for IC50 determination for arogenate and tryptophan, in which variable concentrations were used. To ensure at least 10 minutes of linear reaction, enzyme mass per reaction was carefully adjusted to between 100 to 300 ng (depending on the specific activity of each specific isoform) using DHS storage buffer supplemented with BSA. […] The enzymatic reaction was started with the addition of E4P (variable concentration, see below).
(§3) The DHS assay for UHPLC-MS quantification was set up using the same settings as described in the previous paragraph for the UV-based DHS assay, which guaranteed at least 10 minutes of reaction linearity. After a 10-minute incubation, 20 μL of the reactions (out of a total volume of 50 μL) were mixed into 80 μL of methanol, vortexed and transferred to vials for injection. Analysis of DAHP by UHPLC-MS was conducted using the same chromatographic settings as described for the UHPLC-MS analysis of soluble metabolites and compared with an authentic DAHP standard (Sta. Cruz biotechnology, cat. no. sc-216432).

[2] = system: C=C(OP(=O)(O)O)C(=O)O; experiment: purified protein, by the assay type; conditions: other: 2 mM E4P, 37° C., pH 7.5
[3] = system: O=C[C@H](O)[C@H](O)COP(=O)(O)O; experiment: DHS activity: kinetics and effector inhibition; type: biochemical, Brachypodium distachyon; conditions: other: 1.5 mM PEP, 37° C., pH 7.5
Protocol: as §1, §2, §3

Brachypodium distachyon BdDHS1b, SEQ ID NO: 3, recombinant (Brachypodium distachyon), sequence (chain, as listed by the source): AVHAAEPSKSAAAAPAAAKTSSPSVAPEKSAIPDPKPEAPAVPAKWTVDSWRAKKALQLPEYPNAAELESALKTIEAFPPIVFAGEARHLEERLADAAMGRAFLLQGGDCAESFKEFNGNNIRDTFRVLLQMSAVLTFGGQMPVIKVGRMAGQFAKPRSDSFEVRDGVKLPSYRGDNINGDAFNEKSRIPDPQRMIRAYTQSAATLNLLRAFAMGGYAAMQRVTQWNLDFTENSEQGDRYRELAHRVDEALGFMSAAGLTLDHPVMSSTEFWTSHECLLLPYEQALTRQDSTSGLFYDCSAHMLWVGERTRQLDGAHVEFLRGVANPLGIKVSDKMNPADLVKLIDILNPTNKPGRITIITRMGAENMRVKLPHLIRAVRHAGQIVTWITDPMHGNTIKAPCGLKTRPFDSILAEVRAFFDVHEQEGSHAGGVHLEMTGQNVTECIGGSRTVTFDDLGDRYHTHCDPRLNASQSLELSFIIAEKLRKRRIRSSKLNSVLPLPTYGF
Brachypodium distachyon BdDHS1a, SEQ ID NO: 1, recombinant (Brachypodium distachyon), sequence (chain, as listed by the source): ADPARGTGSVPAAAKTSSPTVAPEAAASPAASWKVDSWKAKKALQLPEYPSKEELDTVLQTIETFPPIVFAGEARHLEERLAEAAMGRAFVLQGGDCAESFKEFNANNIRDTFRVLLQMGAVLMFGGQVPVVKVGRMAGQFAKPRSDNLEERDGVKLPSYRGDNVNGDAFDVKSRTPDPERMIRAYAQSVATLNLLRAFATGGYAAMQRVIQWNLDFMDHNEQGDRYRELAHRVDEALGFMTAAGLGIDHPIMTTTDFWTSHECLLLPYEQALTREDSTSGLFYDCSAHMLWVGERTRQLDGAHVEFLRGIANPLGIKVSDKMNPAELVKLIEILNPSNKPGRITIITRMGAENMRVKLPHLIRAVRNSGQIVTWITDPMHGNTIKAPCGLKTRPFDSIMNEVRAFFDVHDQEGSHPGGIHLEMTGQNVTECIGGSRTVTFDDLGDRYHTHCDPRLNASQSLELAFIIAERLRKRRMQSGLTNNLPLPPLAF
Brachypodium distachyon BdDHS2, SEQ ID NO: 5, recombinant (Brachypodium distachyon), sequence (chain, as listed by the source): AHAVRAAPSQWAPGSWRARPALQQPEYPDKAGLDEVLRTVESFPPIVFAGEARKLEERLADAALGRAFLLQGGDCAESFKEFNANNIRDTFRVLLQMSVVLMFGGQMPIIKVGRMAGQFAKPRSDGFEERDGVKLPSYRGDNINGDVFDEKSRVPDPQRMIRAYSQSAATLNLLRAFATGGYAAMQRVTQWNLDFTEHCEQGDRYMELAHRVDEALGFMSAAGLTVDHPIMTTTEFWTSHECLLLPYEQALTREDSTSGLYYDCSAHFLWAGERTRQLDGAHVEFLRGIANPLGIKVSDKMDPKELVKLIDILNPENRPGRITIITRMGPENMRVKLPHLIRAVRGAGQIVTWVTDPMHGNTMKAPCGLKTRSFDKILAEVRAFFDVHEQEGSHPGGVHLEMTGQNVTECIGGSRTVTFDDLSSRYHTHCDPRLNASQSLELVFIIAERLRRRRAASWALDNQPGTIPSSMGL

| Substance | K0.5 [1] | kcat [1] | Km [2] | kcat [2] | kcat/Km [2] | K0.5 [3] | kcat [3] |
| --- | --- | --- | --- | --- | --- | --- | --- |
| Brachypodium distachyon BdDHS1a, SEQ ID NO: 1, recombinant (Brachypodium distachyon) | 0.55 mM | 17 s⁻¹ | 130 µM | 17 s⁻¹ | 126000 M⁻¹ s⁻¹ |  |  |
| Brachypodium distachyon BdDHS1b, SEQ ID NO: 3, recombinant (Brachypodium distachyon) |  |  | 200 µM | 11.3 s⁻¹ | 57200 M⁻¹ s⁻¹ |  |  |
| Brachypodium distachyon BdDHS2, SEQ ID NO: 5, recombinant (Brachypodium distachyon) |  |  | 190 µM | 5.6 s⁻¹ | 29000 M⁻¹ s⁻¹ | 0.51 mM | 5.6 s⁻¹ |
